Laboratory results: patent US20180280525A1 (published 2018)
Numbered stars: 1 amine (or outer) side, 2 acyl side, 3 side chain; on linkers, the order of the positions; unused ones are H or OH. Bridge positions count the residues as written; N and C are the ends. Square brackets hold non-standard residues; d marks the D form. Ends that are not written are not given here. * marks the point of attachment. DOTA = O=C(O)CN1CCN(CC(=O)O)CCN(CC(=O)*)CCN(CC(=O)O)CC1; fluorescein = fluorescein label on the Lys side chain; Phe(4-Br) = N[C@@H](Cc1ccc(Br)cc1)C(=O)O; 1Nal = N[C@@H](Cc1cccc2ccccc12)C(=O)O; TBMB = c1c(C[*:1])cc(C[*:3])cc1C[*:2]; Tle = CC(C)(C)[C@H](N)C(=O)O; Sar = CNCC(=O)O

Legend:
[1] = target: T1, human MT1-MMP hemopexin domain (human, UniProt P50281 319-511); assay: FP competition, human MT1-MMP hemopexin domain; tracer not given
T1 construct: range 319-511; Secreted from HEK293 cells as soluble N-terminally His6-tagged protein; also called MT1-MMP hemopexin-like repeats; MMP14

[2] = target: T1, human MT1-MMP hemopexin domain; assay: FP competition, human MT1-MMP hemopexin domain; method not given
[3] = target: T1, human MT1-MMP hemopexin domain; assay: FP direct binding, fluoresceinated peptide titrated with hemopexin domain
[4] = target: T1, human MT1-MMP hemopexin domain; assay: FP competition, tracer A-(17-69-07)-A-Sar6-K(Fluorescein)
[5] = target: T1, human MT1-MMP hemopexin domain; assay: FP competition, tracer A-(17-69-12)-A-Sar6-K(Fluorescein)
[6] = target: T1, human MT1-MMP hemopexin domain; assay: FP competition, human MT1-MMP hemopexin domain; tracer not given; remark: listed apart in the source
[7] = target: T1, human MT1-MMP hemopexin domain; assay: as above; remark: listed apart in the source
[8] = target: T1, human MT1-MMP hemopexin domain; assay: FP competition, tracer A-(17-69-07)-A-Sar6-K(Fluorescein); remark: listed apart in the source
[9] = target: T2, dog MT1-MMP hemopexin domain (dog, UniProt A0A8I3MND9 318-511); assay: FP competition, dog MT1-MMP hemopexin domain
T2 construct: domain: hemopexin domain
Experimental: Subsequently, the non-fluorescent competitor bicyclic peptide (usually just the bicycle core sequence) is titrated, such that it displaces the fluorescent tracer from the target protein. The displacement of the tracer is measured and associated with a drop in fluorescence polarisation. The drop in fluorescence polarisation is proportional to the fraction of target protein bound with the non-fluorescent titrant, and thus is a measure of the affinity of titrant to target protein.

[10] = target: T1, human MT1-MMP hemopexin domain; assay: FP competition, Human/cyno MT1-MMP hemopexin domain
[11] = target: T1, human MT1-MMP hemopexin domain; assay: FP competition, human MT1-MMP hemopexin domain (n = 3; footnote e)
[12] = target: T1, human MT1-MMP hemopexin domain; assay: FP competition, human MT1-MMP hemopexin domain; tracer not given; remark: listed apart in the source

B1: 17-69-07-N252 (peptide)
chain: Ac-C[dA]NE[1Nal][dA]CEDF[Phe(4-Br)]D[Tle]C
modifications: linker 1-7-14 via TBMB; not fully specified (C-terminus); printed as Ac-(17-69-07) D-Ala1 1Nal4 D-Ala5 4BrPhe9 tBuGly11
- Kd [1]: 800 pM

B2: 17-69-07-N144 (peptide)
peptide: {DOTA}-ACYNEFGCEDFYDIC
modifications: linker 2-8-15 via TBMB; not fully specified (C-terminus); also: DOTA loaded with 177Lu
notes: Loaded with 177Lu for the biodistribution study; also called DOTA-A-(17-69-07)
- Kd [2]: 500 pM

B3: 17-69-12-N005 (peptide)
peptide: ACMNQFGCEDFYDICA[Sar][Sar][Sar][Sar][Sar][Sar]K(fluorescein)
modifications: linker 2-8-15 via TBMB; not fully specified (C-terminus)
notes: also called A-(17-69-12)-A-Sar6-K(Fl); A-(17-69-12)-A-Sar6-K(Fluorescein)
- Kd [3]: 3100 pM

B4: 17-69-07-N040 (peptide)
peptide: ACYNEFGCEDFYDICA[Sar][Sar][Sar][Sar][Sar][Sar]K(fluorescein)
modifications: linker 2-8-15 via TBMB; not fully specified (C-terminus)
notes: also called A-(17-69-07)-A-Sar6-K(Fl); A-(17-69-07)-A-Sar6-K(Fluorescein)
- Kd [3]: 520 pM

B5: 17-69-07-N147 (peptide)
peptide: {DOTA}-ACYNEFGCEDFYDIC
modifications: linker 2-8-15 via TBMB; not fully specified (C-terminus); also: DOTA loaded with cold 175Lu
notes: also called DOTA[Lu]-A-(17-69-07)
- Kd [2]: 950 pM

Binder: ACVNEFGCEDFYDICA (linker 2-8-15 via TBMB; not fully specified (C-terminus), also called A-(17-69-03)-A) [17-69-03-N001]
- Kd [4]: 16700 pM

Binder: ACYNEFGCEDFYDICA (linker 2-8-15 via TBMB; not fully specified (C-terminus), also called A-(17-69-07)-A) [17-69-07-N001]
- Kd [5]: 1650 pM

Binder: Ac-CYNEF[dR]CEDFYDIC (linker 1-7-14 via TBMB; not fully specified (C-terminus)) [17-69-07-N120]
- Kd [6]: 4240 pM

Binder: Ac-CYNEYGCEDFYDIC (linker 1-7-14 via TBMB; not fully specified (C-terminus), also called Ac-(17-69-07) Tyr4) [17-69-07-N057]
- Kd [7]: 1780 pM

Binder: Ac-CYNEWGCEDFYDIC (linker 1-7-14 via TBMB; not fully specified (C-terminus), also called Ac-(17-69-07) Trp4) [17-69-44-N002]
- Kd [7]: 750 pM

B6: 17-69-N004 (peptide)
peptide: ACKNRGFGCEDFYDICA[Sar][Sar][Sar][Sar][Sar][Sar]K(fluorescein)
modifications: linker 2-9-16 via TBMB; not fully specified (C-terminus)
notes: also called A-(17-69)-A-Sar6-K(Fl); A-(17-69)-A-Sar6-K(Fluorescein)
- Kd [3]: 692000 pM

Binder: ACMNQFGCEDFYDICA (linker 2-8-15 via TBMB; not fully specified (C-terminus), also called A-(17-69-12)-A) [17-69-12-N003]
- Kd [8]: 3700 pM

B7: 17-69-07-N248 (peptide)
chain: {DOTA}-AC[dA]NE[1Nal][dA]CEDF[Phe(4-Br)]D[Tle]C
modifications: linker 2-8-15 via TBMB; not fully specified (C-terminus); also: 177Lu chelated in DOTA for biodistribution study
- Kd [2]: 500 pM

Binder: ACFGEFGCEDFYDICA (linker 2-8-15 via TBMB; not fully specified (C-terminus), also called A-(17-69-02)-A) [17-69-02-N001]
- Kd [4]: 191000 pM

B8: 17-69-07-N219 (peptide)
peptide: GXACYNEFGCEDFYDIC
modifications: not fully specified; Sar x10 in the spacer; 3 Cys cyclised with TBMB
notes: also called G-Sar10-A-(17-69-07) (non-stabilised with spacer)
- Kd [9]: 900 pM
- Kd [10]: 820 pM
- Kd [11]: 820 pM
- Kd [12]: 820 pM
